Test results reported in PMC10397247.

Columns and labels:
4H327-AA = target: T1, 4H327-AA; test: two-hybrid library CCmax; details: mean of both orientations;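 further: natural log of median RNA to DNA barcode read ratio; higher means stronger binding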
T1 chain: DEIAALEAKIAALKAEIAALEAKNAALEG

4H369-AA = target: T2, 4H369-AA; test: two-hybrid library CCmax;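 further: natural log of median RNA to DNA barcode read ratio; higher means stronger binding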
T2 chain: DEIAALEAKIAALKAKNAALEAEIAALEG

4H3605-AA = target: T3, 4H3605-AA; test: two-hybrid library CCmax; details: mean of both orientations;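 further: natural log of median RNA to DNA barcode read ratio; higher means stronger binding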
T3 chain: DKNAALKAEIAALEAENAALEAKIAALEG

4H2536-AA = target: T4, 4H2536-AA; test: two-hybrid library CCmax; details: mean of both orientations;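 further: natural log of median RNA to DNA barcode read ratio; higher means stronger binding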
T4 chain: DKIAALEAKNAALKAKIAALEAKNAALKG

4H3664-AA = target: T5, 4H3664-AA; test: two-hybrid library CCmax; details: mean of both orientations
T5 chain: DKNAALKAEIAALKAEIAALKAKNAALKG

4H3625-AA = target: T6, 4H3625-AA; test: two-hybrid library CCmax; details: mean of both orientations
T6 chain: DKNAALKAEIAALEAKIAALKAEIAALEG

4H481-AA = target: T7, 4H481-AA; test: two-hybrid library CCmax; details: mean of both orientations
T7 chain: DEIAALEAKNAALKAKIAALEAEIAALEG

4H4033-AA = target: T8, 4H4033-AA; test: two-hybrid library CCmax; details: mean of both orientations
T8 chain: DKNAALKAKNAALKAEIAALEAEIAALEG

4H3922-AA = target: T9, 4H3922-AA; test: two-hybrid library CCmax; details: mean of both orientations
T9 chain: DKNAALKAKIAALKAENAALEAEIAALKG

4H662-AA = target: T10, 4H662-AA; test: two-hybrid library CCmax; details: mean of both orientations
T10 chain: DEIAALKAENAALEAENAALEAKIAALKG

4H2726-AA = target: T11, 4H2726-AA; test: two-hybrid library CCmax; details: mean of both orientations
T11 chain: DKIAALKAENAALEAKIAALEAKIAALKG

4H341-AA = target: T12, 4H341-AA; test: two-hybrid library CCmax
T12 chain: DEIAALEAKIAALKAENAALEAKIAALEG

4H1198-AA = target: T13, 4H1198-AA; test: two-hybrid library CCmax
T13 chain: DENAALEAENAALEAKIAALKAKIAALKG

4H1405-AA = target: T14, 4H1405-AA; test: two-hybrid library CCmax; details: mean of both orientations
T14 chain: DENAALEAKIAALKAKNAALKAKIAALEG

4H1350-AA = target: T15, 4H1350-AA; test: two-hybrid library CCmax; details: mean of both orientations
T15 chain: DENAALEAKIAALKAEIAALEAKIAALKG

4H2614-AA = target: T16, 4H2614-AA; test: two-hybrid library CCmax; details: mean of both orientations
T16 chain: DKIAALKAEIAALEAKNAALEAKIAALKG

4H2238-AA = target: T17, 4H2238-AA; test: two-hybrid library CCmax; details: mean of both orientations
T17 chain: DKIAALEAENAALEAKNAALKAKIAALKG

4H2211-AA = target: T18, 4H2211-AA; test: two-hybrid library CCmax; details: mean of both orientations
T18 chain: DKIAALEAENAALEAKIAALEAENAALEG

4H55-AA = target: T19, 4H55-AA; test: two-hybrid library CCmax; details: mean of both orientations
T19 chain: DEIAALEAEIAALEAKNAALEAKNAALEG

4H2513-AA = target: T20, 4H2513-AA; test: two-hybrid library CCmax; details: mean of both orientations
T20 chain: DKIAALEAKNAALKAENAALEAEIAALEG

4H2608-AA = target: T21, 4H2608-AA; test: two-hybrid library CCmax; details: mean of both orientations
T21 chain: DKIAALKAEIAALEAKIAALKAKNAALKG

4H2935-AA = target: T22, 4H2935-AA; test: two-hybrid library CCmax; details: mean of both orientations
T22 chain: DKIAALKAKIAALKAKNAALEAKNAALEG

4H3162-bN = target: T23, 4H3162-bN; test: two-hybrid library CCNG1
T23 chain: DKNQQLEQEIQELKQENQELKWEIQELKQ

4H3277-bN = target: T24, 4H3277-bN; test: two-hybrid library CCNG1
T24 chain: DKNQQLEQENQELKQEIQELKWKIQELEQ

4H3175-bN = target: T25, 4H3175-bN; test: two-hybrid library CCNG1
T25 chain: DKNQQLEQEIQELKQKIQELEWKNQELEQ

4H1373-bN = target: T26, 4H1373-bN; test: two-hybrid library CCNG1
T26 chain: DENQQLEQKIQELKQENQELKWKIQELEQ

4H3926-bN = target: T27, 4H3926-bN; test: two-hybrid library CCNG1
T27 chain: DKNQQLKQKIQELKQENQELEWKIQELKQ

4H3858-bN = target: T28, 4H3858-bN; test: two-hybrid library CCNG1
T28 chain: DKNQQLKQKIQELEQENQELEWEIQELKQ

4H591-bN = target: T29, 4H591-bN; test: two-hybrid library CCNG1
T29 chain: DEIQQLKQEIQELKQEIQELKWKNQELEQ

4H570-bN = target: T30, 4H570-bN; test: two-hybrid library CCNG1
T30 chain: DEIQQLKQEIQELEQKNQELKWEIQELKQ

4H906-bN = target: T31, 4H906-bN; test: two-hybrid library CCNG1
T31 chain: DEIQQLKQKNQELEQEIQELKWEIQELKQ

4H3298-bN = target: T32, 4H3298-bN; test: two-hybrid library CCNG1
T32 chain: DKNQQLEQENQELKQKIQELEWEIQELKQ

4H626-bN = target: T33, 4H626-bN; test: two-hybrid library CCNG1
T33 chain: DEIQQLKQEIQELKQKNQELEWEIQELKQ

4H3613-bN = target: T34, 4H3613-bN; test: two-hybrid library CCNG1
T34 chain: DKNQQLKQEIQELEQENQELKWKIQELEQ

4H1449-bN = target: T35, 4H1449-bN; test: two-hybrid library CCNG1
T35 chain: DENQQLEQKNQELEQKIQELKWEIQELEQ

4H1985-bN = target: T36, 4H1985-bN; test: two-hybrid library CCNG1
T36 chain: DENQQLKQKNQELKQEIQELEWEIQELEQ

4H3497-bN = target: T37, 4H3497-bN; test: two-hybrid library CCNG1
T37 chain: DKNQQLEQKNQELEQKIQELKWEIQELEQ

4H3628-bN = target: T38, 4H3628-bN; test: two-hybrid library CCNG1
T38 chain: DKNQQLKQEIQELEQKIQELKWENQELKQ

4H3462-bN = target: T39, 4H3462-bN; test: two-hybrid library CCNG1
T39 chain: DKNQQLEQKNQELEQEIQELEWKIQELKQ

4H1899-bN = target: T40, 4H1899-bN; test: two-hybrid library CCNG1
T40 chain: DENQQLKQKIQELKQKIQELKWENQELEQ

4H1348-bN = target: T41, 4H1348-bN; test: two-hybrid library CCNG1
T41 chain: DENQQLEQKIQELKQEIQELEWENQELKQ

P6bH1 = target: T42, P6bH1; test: two-hybrid library CCNG1
T42 chain: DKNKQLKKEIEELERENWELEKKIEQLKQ

4H3817-bN = target: T43, 4H3817-bN; test: two-hybrid library CCNG1
T43 chain: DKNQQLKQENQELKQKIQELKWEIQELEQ

4H1544-bN = target: T44, 4H1544-bN; test: two-hybrid library CCNG1
T44 chain: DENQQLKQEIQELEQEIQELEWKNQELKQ

4H1710-bN = target: T45, 4H1710-bN; test: two-hybrid library CCNG1
T45 chain: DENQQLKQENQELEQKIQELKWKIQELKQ

4H3974-bN = target: T46, 4H3974-bN; test: two-hybrid library CCNG1
T46 chain: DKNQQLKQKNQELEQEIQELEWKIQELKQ

4H850-bN = target: T47, 4H850-bN; test: two-hybrid library CCNG1
T47 chain: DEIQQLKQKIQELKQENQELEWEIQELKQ

DENAALEAENAALEAKIAALKAKIAALKG [4H1198-AA]
interaction score (4H327-AA): -0.574 | interaction score (4H369-AA): -1.45 | interaction score (4H3605-AA): 0.0472 | interaction score (4H2536-AA): -0.886 | interaction score (4H3664-AA): 1.22 | interaction score (4H3625-AA): -0.0176 | interaction score (4H481-AA): 1.9 | interaction score (4H4033-AA): 2.18 | interaction score (4H3922-AA): 0.661 | interaction score (4H662-AA): -1.15 | interaction score (4H2726-AA): -0.438 | interaction score (4H341-AA): -2.13 | interaction score (4H1198-AA): -0.611 | interaction score (4H1405-AA): -0.758 | interaction score (4H1350-AA): 0.496 | interaction score (4H2614-AA): -0.463 | interaction score (4H2238-AA): -0.785 | interaction score (4H2211-AA): -1.3 | interaction score (4H55-AA): -0.467 | interaction score (4H2513-AA): 1.14 | interaction score (4H2608-AA): 0.869 | interaction score (4H2935-AA): -1.5

DENQQLEQKIQELKQEIQELEWENQELKQ [4H1348-bN]
interaction score (4H3162-bN): -0.0481 | interaction score (4H3277-bN): -0.122 | interaction score (4H3175-bN): -0.302 | interaction score (4H1373-bN): -0.955 | interaction score (4H3926-bN): -0.478 | interaction score (4H3858-bN): -0.748 | interaction score (4H591-bN): -1.4 | interaction score (4H570-bN): 0.123 | interaction score (4H906-bN): -0.116 | interaction score (4H3298-bN): 0.08 | interaction score (4H626-bN): -0.135 | interaction score (4H3613-bN): -0.0173 | interaction score (4H1449-bN): -0.5 | interaction score (4H1985-bN): -0.781 | interaction score (4H3497-bN): -0.431 | interaction score (4H3628-bN): -0.12 | interaction score (4H3462-bN): -0.171 | interaction score (4H1899-bN): -0.707 | interaction score (4H1348-bN): -1.55 | interaction score (P6bH1): -0.556 | interaction score (4H3817-bN): -0.958 | interaction score (4H1544-bN): -1.46 | interaction score (4H1710-bN): -1.09 | interaction score (4H3974-bN): 0.224 | interaction score (4H850-bN): 0.761
